In patent US20230257722:

Tests used:
Assay in all cases: cell_activity
[1] = test system: TL4409 SMARCA4 left TALE-FokI (synthetic); conditions: A549, mRNA, pair with pFR
[2] = test system: TL4409 SMARCA4 left TALE-SEQ1 nuclease (synthetic); conditions: A549, mRNA, pair with p1R; Table 10 59.7% cleavage
[3] = test system: TL4409 SMARCA4 left TALE-SEQ2 nuclease (synthetic); conditions: A549, mRNA, pair with p2R; Table 10 67.6% cleavage
[4] = test system: TL4409 SMARCA4 left TALE-SEQ4 nuclease (synthetic); conditions: A549, mRNA, pair with p4R; Table 10 94.5% cleavage
[5] = test system: TL4409 SMARCA4 left TALE-SEQ5 nuclease (synthetic); conditions: A549, mRNA, pair with p5R; no cleavage, binding not measured
[6] = test system: TL4409 SMARCA4 left TALE-SEQ6 nuclease (synthetic); conditions: A549, mRNA, pair with p6R; Table 10 75.2% cleavage
[7] = test system: TL4409 SMARCA4 left TALE-SEQ7 nuclease (synthetic); conditions: A549, mRNA, pair with p7R; no cleavage, binding not measured
[8] = test system: TL4409 SMARCA4 left TALE-SEQ8 nuclease (synthetic); conditions: A549, mRNA, pair with p8R; Table 10 70.4% cleavage
[9] = test system: TL4412 SMARCA4 right TALE-FokI (synthetic); conditions: A549, mRNA, pair with pFL
[10] = test system: TL4412 SMARCA4 right TALE-SEQ1 nuclease (synthetic); conditions: A549, mRNA, pair with p1L; Table 10 59.7% cleavage
[11] = test system: TL4412 SMARCA4 right TALE-SEQ2 nuclease (synthetic); conditions: A549, mRNA, pair with p2L; Table 10 67.6% cleavage
[12] = test system: TL4412 SMARCA4 right TALE-SEQ4 nuclease (synthetic); conditions: A549, mRNA, pair with p4L; Table 10 94.5% cleavage
[13] = test system: TL4412 SMARCA4 right TALE-SEQ5 nuclease (synthetic); conditions: A549, mRNA, pair with p5L; no cleavage, binding not measured
[14] = test system: TL4412 SMARCA4 right TALE-SEQ6 nuclease (synthetic); conditions: A549, mRNA, pair with p6L; Table 10 75.2% cleavage
[15] = test system: TL4412 SMARCA4 right TALE-SEQ7 nuclease (synthetic); conditions: A549, mRNA, pair with p7L; no cleavage, binding not measured
[16] = test system: TL4412 SMARCA4 right TALE-SEQ8 nuclease (synthetic); conditions: A549, mRNA, pair with p8L; Table 10 70.4% cleavage

Sequence	activity [1] [% indels]	activity [2] [% indels]	activity [3] [% indels]	activity [4] [% indels]	activity [5] [% indels]	activity [6] [% indels]	activity [7] [% indels]	activity [8] [% indels]	activity [9] [% indels]	activity [10] [% indels]	activity [11] [% indels]	activity [12] [% indels]	activity [13] [% indels]	activity [14] [% indels]	activity [15] [% indels]	activity [16] [% indels]
GGCGTGTCCCAGGCCCTTGC (double strand) [SMARCA4 left half-site]	74	42	8	87	0	1	0	38	–	–	–	–	–	–	–	–
ACTGAGAGAGTGGACAAGC (double strand) [SMARCA4 right half-site (top strand)]	–	–	–	–	–	–	–	–	74	42	8	87	0	1	0	38
